{"source": "the nanobody polyreactivity screen of Harvey et al. (2022)", "data": [{"experiment": "yeast display, Sf9 membrane polyspecificity reagent, FACS + sequencing; frameworks hold sequencing errors", "summary_of_the_method": "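Galactose-induced (36–48 hours) yeast carrying a synthetic nanobody display library were exposed to 10% biotinylated, detergent-solubilized Sf9 membrane reagent at 4 °C for 1 hour. FACS followed streptavidin microbead enrichment, using low and high (top ~1%) gates for expression (anti-HA) and reagent binding (streptavidin). Colony PCR, MiSeq 2 × 250 sequencing and CDR-length filtering followed. Labels for polyreactivity reflect the gate of origin.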", "values": [{"sequence": "KVQLVESGGGLVQAGGSLRLSCAASGSIFSFYTKGWYRQAPGKERELVAAINWSGSRTYYADSVKGRFTISRDNAKNTVYLQMNSLKPVDTAVYYCAAYLWFYVRYEYWGQGTQVTVSS", "polyreactivity (PSR sort gate)": "high polyreactivity"}, {"sequence": "KVQLVESGGGLVQAGGSLRLSCAASGSIFWFYAMGWYRQAPGKEREFVATISRSCGSTYYADSVKGRFTISRDNAKNTDYLQMNSLKPEDTAVYYCIARGPRSHRYDYWGQGTQVNVSS", "polyreactivity (PSR sort gate)": "high polyreactivity"}, {"sequence": "KVQLVESGGGLVQAGGSLRLSCAASGSTFYYYAMGWYSQAPGKERELVAAITSSTGSTYYADSVKGRFTISRDNAKNTVYLQMNSLKPVDTAVYYCAATDPYAYYWGQGTKVTVSS", "polyreactivity (PSR sort gate)": "high polyreactivity"}, {"sequence": "KVQLVESGGGLVQAGGSLRLSCAASGSTISGYAMGWYRQAPGKERELVAAITIGGGTYYADSVKGRFPISRDNAKNTVYLQMNSLKPEDTGVYYCNAYRRKLWYPTGMYWGQGTQVTVSW", "polyreactivity (PSR sort gate)": "high polyreactivity"}, {"sequence": "KVQLVESGGGLVQEGGSLPLSCAASGRTFDYNTMGWYRQAPGKERELVAAISSRGDSTYYADSVKGLFTISRDKAKNTVYLQMNSLNPEDTAVYYCAARYYPGRGFGYGYWGQGTQVTVSS", "polyreactivity (PSR sort gate)": "high polyreactivity"}, {"sequence": "KVQLVESGGGLVQPGGSLRLSCASSGQTFTTNEMGWNRQAHGKERDLLAAISRRGSRTYYADSVKGRFTISRDNAKNSVFLQMNSLKPEDTAVYYCNALTGSFKTYSFDYWGQGTQVTVSS", "polyreactivity (PSR sort gate)": "high polyreactivity"}, {"sequence": "KVQLVESGGGLVQSGVSLRLSCAASGYTFEYNAMGWYIQAPGKEREFVSTITASGDSTYYAVSVKGRFTMSRDNAKNTVYFQMNSLKPEDTAVYYCAVDCAYLDDYSFTWDDYWGQGTQVTVSS", "polyreactivity (PSR sort gate)": "low polyreactivity"}, {"sequence": "KVQLVESVGGLVQAGGSLRLSCAASGFTFCRNTMGWYRQAPGKEREFVAAITVTGGSTYYADSVKGRFTISRDNAKNTVYLQMNSLKPEDTAVYYCAAGWTSAYVNYDYWGQGTQVTVSS", "polyreactivity (PSR sort gate)": "low polyreactivity"}, {"sequence": "KVQLVETGGGLVQAGGSLRLSCAASGRTFWGYAKGWYRQAPGKEREFVAAISCGGRTNYADSVKGRFTISRDNAKNTVYLQLNSLKPEDSAVYYCATVSGYGYYYWGQGTQVTVSS", "polyreactivity (PSR sort gate)": "low polyreactivity"}, {"sequence": "KVQVVESGGGLVQAGGSLRLSCAASGSTFYYNAMGWYTQAPGKERELVAAITGSGTGTNYADSVKGRFTISRDNAKNTVYLQMNSLKPEDTAVYYCAADYVWRGDPINSYLSWYVYWGQGTQVTVSS", "polyreactivity (PSR sort gate)": "low polyreactivity"}, {"sequence": "LVQHVESGGGLVQAGGSLRLNCAASGRTFKPYAMGWYIQSPGKERELVAAISTRGGSTYYADSVKGRFTISRDNAKNSVFLQMNSLKPEDTALFYCAATQPGRDYDYWGQGTQVTVSS", "polyreactivity (PSR sort gate)": "low polyreactivity"}, {"sequence": "LVQLQESGGCLVLAGGGLRLSCAASGNIFTYVIMGWYRQPPGKERELVAAITYGTITNYADSVKGPFTISRDNAKNTVYMQMNCLKPEDTAVYHCAVQSPRIEPRLYYWGQGTQVTVSS", "polyreactivity (PSR sort gate)": "high polyreactivity"}, {"sequence": "LVQLQESGGGLVQAGGSLRLSCAASGTNSPGGYMGWYRKAPGKERELVASINVGGSTNYADSVKGRFTISRDNAKNTVYLQMNSLKPEDNAVYFCAVWGRNRLQLSYWGQGTQVTVSS", "polyreactivity (PSR sort gate)": "low polyreactivity"}, {"sequence": "LVQLQESGGGLVQPGGRLRLSCAASGTISPGGYMGWYRQAPGKERELVASINVGGRTNYADSVKGRFTISRDNAKNTVYLQMNSLKPEDNAVSYCAVWGRNRLQLSYWGQGTQVTVSS", "polyreactivity (PSR sort gate)": "low polyreactivity"}, {"sequence": "LVQLVESGGGLVQAGGSLRLSCAASGAIFYQDAQGCYRQAPGKERELVAAISKNGRSTYYADSVKGRFTISRDNAKNTVYLQMNSLKPEATAVYYCAARVLKGYYWGQGTQVTVSS", "polyreactivity (PSR sort gate)": "high polyreactivity"}, {"sequence": "LVQLVESGGGLVQAGGSLRLSCAASGRIIPPNAMGWYRQAPGTERELVATITWGVGSTYYADSVKGRFTISRDNAKNTVYLQMNSLKPEDTAVYYCYARRFRPYGFYYWGQGTQVTVSS", "polyreactivity (PSR sort gate)": "high polyreactivity"}, {"sequence": "LVQLVESGGGLVQAGGSLRLSCAASGRTFPGYAMGGYSQAPGKERELVASINFRGGGTYADSVKGRFTISRDNAKNTVYLLMNSLKPEDTAVYYCAAEYFWGKRRFGYWGQGTQVTVSS", "polyreactivity (PSR sort gate)": "high polyreactivity"}, {"sequence": "LVQLVESGGGLVQAGGSLRLSCAASGSIFPPYAMGWYRQAPGKERELVAARSNGGSTNYAYAVKGRFTISRDNPNYTVYLQMNSLIPEDTAVYYCVARQYYLGWFPYWRIFDYWGQGTQVTVSS", "polyreactivity (PSR sort gate)": "high polyreactivity"}, {"sequence": "LVQLVESGGGLVQAGGSLRLSCAASGSIFSVYAMGWYRQAPGKERELVAAITWRGGNTYYADSVKGRFTLSRDNAKNTVYLQMNSLKPEDTAVYYCNRVYRQRLGRDYWGQGTQVTVSS", "polyreactivity (PSR sort gate)": "high polyreactivity"}, {"sequence": "LVQLVESGGGLVQAGGSLRLSCAASGSTFIPYAMGWYRQAPGKERELVAAIRGGDGSTYYADSVKGRFTISRDNAKNTVYLQMNSLKPEDTAVYYCAADTVITAYFYRFWRYNYWGQGTQVTVSS", "polyreactivity (PSR sort gate)": "low polyreactivity"}, {"sequence": "LVQLVESGGGLVQAGGSLRVSCAASGLIIYDNAMGGYRQAPGKEREVVATISSGGRTYYADSVKGRFTISRDNAKNTVYLQMNSLKPEDTAVYYCAVDPGYSWYAQYDYWGQGTQVTVSS", "polyreactivity (PSR sort gate)": "low polyreactivity"}, {"sequence": "LVQVVESGGGLVQAGCSLRLSCAASGRTFGVYAMGWYRQAPGKEWELVASISRSGGSTYYADSLKGRFTISRDNAKNTVYLQMNSLIPEDTAVYYCAAVYKRGMDYWGQGTQVTVSS", "polyreactivity (PSR sort gate)": "high polyreactivity"}, {"sequence": "PLQLVESGGGLVQAGGSLRLSCAASGRIFGTYAMGWYRQAPGKERELVAAITLSDGSTYYADSVKGRFTISRDNAKNTVYLEMNSLIPDDTAVYYCAAVVDRFHPGLYEYWGQGTQVTVSS", "polyreactivity (PSR sort gate)": "low polyreactivity"}, {"sequence": "PLQLVESGGGLVQAGGSLRLSCAASGTIFVQTDRGWYRQAPGKERELVAAISSGSSTNYADSVNGRFTISRDNAKNTVYLQMNSLKPEDSAAYYCAVTSPYSQGYSYWGADSRDYWGQGTQVTVSS", "polyreactivity (PSR sort gate)": "low polyreactivity"}, {"sequence": "PVQIVESGGVLDQAGGSLRLSCAASGSIFTRNTMGWYRQAPRKERELVAAISQRGGSTYYADSVKGRFTISRDNAKNTVYLQMNSLIPEDTAVYFCAADFSFGYYWYGYWGQGTQVTVSS", "polyreactivity (PSR sort gate)": "high polyreactivity"}, {"sequence": "PVQLQESGGGLMQAGGNLRLSCAASGYISTHYDMDWYRQAPGKERELVARIDDGAITNYADSVKGRFTISRDNAKNTVYLQMNSLKPEDTAVYYCAVYSGDDYYHDYWGQGTQVTVSS", "polyreactivity (PSR sort gate)": "low polyreactivity"}, {"sequence": "PVQLVDSGGGLVQAGGSLRLSCGASGRTFRKYGIGWYRQAAGKERELVAGISRSGGTTYYADTVKGRFTISRDTAKNTVYLQMNSLKPEDTAVYYCAKRTGPSGEDYWGQGTQVTVSS", "polyreactivity (PSR sort gate)": "high polyreactivity"}, {"sequence": "PVQLVESGGGLGQAGGSLRLSCAASGSTFLYSAMGWYRPAPGKERELVAGISASGGSSYYADSVKGRFTISRDYAKNTVYLQMNSLKPEDTAVYYCNATRVVIRHSYDYWGQGTQVTVSS", "polyreactivity (PSR sort gate)": "high polyreactivity"}, {"sequence": "PVQLVESGGGLVQAGGRLLLICAASGSIFTPKAMGWYRQAPGKERELVAAITSRGGSTYYADSVKGRFTISRDNAKNTFYLQMNSLKPEDTAVYYCASKPHSSKYDYWGQGTQVTVSS", "polyreactivity (PSR sort gate)": "low polyreactivity"}, {"sequence": "PVQLVESGGGLVQAGGSHRLSCAASGITFGVYPMGWYRQAAGKERELVAAISRRGASTYYADSVKGRFTISRDKAKNSVYLQMNSLKPEDTAVYYCAAYLARRQYDYWGQGTQVTVSS", "polyreactivity (PSR sort gate)": "high polyreactivity"}, {"sequence": "PVQLVESGGGLVQAGGSLLLSCAASGRIFSRNAMGWNIQAPGKERELVAAISRSGTSTYYADSVKGRFTSSRDNAKNTVYLQMNSLKPEETAVYYCAADYPAVISIRRYDYWGQGTQLTVSS", "polyreactivity (PSR sort gate)": "low polyreactivity"}, {"sequence": "PVQLVESGGGLVQAGGSLRISCAASGSIFRVNAMGWYRQAPGKERELVAAITTNGGSTYYADSVKGRFTISRDNAKNTVYLQMNSLKPEDTAVYYCAADYSLPWSWLYEYWGQGTQVTVSS", "polyreactivity (PSR sort gate)": "low polyreactivity"}, {"sequence": "PVQLVESGGGLVQAGGSLRLICAASGRIFLPYAMGWYRQAPGKERELVASITRRGGTTYYADSVKGRFTLSRDYAKNTDYLQLNSLKTEDTSVYYCAADSGYRLQSYGYWGQGTQVTVSS", "polyreactivity (PSR sort gate)": "high polyreactivity"}, {"sequence": "PVQLVESGGGLVQAGGSLRLICAASGSIFYQYTMGWYRQAPGKERELVATISWSDVSTYYADSVKGRFTISRENAQNPVYLQMNSLKPEDTSVYYCAALYSGWDRYYGYDYWGQGTQVTVSS", "polyreactivity (PSR sort gate)": "low polyreactivity"}, {"sequence": "PVQLVESGGGLVQAGGSLRLSCAACGYTFQVYAMGWYRQAPGKERELVASIRWRGGRTYYADSVKGRFTISRDNAKNTVYLKLNSLKPADTSVYYCAARQFVIYPTYYTYYYWGQGTQVTVSS", "polyreactivity (PSR sort gate)": "high polyreactivity"}, {"sequence": "PVQLVESGGGLVQAGGSLRLSCAASGRTFLVYSMGWYRQAPGKERELVAAISNGGSTNYADSVKGRFTISRDNAKKTVYLQMNSLKPEDTALYDCATRIHKWYYYWGQGTQVTVSS", "polyreactivity (PSR sort gate)": "high polyreactivity"}, {"sequence": "PVQLVESGGGLVQAGGSLRLSCAASGSIFAVNALGWSRQAPGKERELVAAITSGGNTYYADSVKGRFTISRDNAKNTVYLQMNSLKPEDTAVYDCATVFSVQGWYFGMNYWGQGTQVTVSS", "polyreactivity (PSR sort gate)": "low polyreactivity"}, {"sequence": "PVQLVESGGGLVQAGGSLRLSCAASGSIFGYYAMGWYRQAPGKERELVAAISSSGASTYYADSVKGRFTISRDNAKNTVSLQMNSLKPEDTAVSYCIAARRYPTRGGYWGQGTQVTVSS", "polyreactivity (PSR sort gate)": "high polyreactivity"}, {"sequence": "PVQLVESGGGLVQAGGSLRLSCAASGSIFGYYAMGWYRQAPGKERELVAAITWSGDSTYYADSVKGRFTISRDNAKNTVYLQMNSLKPEDTAVYYCAARQFVHTRYFSFGYWGQGTQVTVSS", "polyreactivity (PSR sort gate)": "low polyreactivity"}, {"sequence": "PVQLVESGGGLVQAGGSLRLSCAASGSTFAYNDLGWYRQAPGKERELVADIRSGGNTNYADSVKGRFTISRDNAKNTVYLQMNSLKPEDTAVYYCATDGYRIDVFHPDYRYDYWGQGTQETVSS", "polyreactivity (PSR sort gate)": "low polyreactivity"}, {"sequence": "PVQLVESGGGLVQAGGSLRLSCSSSGRIFASNAMGWYRQPPGKDRELVAAIDQGGGSTYYADSVKGRFTISRDNAKITVYLQMNSLKPEDTAVYYCAADYITAYPRLYNYWGLGTQVTVSS", "polyreactivity (PSR sort gate)": "low polyreactivity"}, {"sequence": "QDHHVDSGGGLVQAGGILRLSCAASGSIIDYYPMGWYRQPPGKERELVARIRRRSSSTFYADSVKGRFTISRDNEKNTDYLQMNSLKPEDTAVYYCAADSYAWSTGGIFDYWGQGTQVTVSS", "polyreactivity (PSR sort gate)": "high polyreactivity"}, {"sequence": "QDHLVESGGGLVQAGGSLRLSCAASGFIFRGNAMGWYRQPPGKERELVAAISRRGGTTYYADCVKGRFTISRDNAKNTDYLQMNSLKPEDTAVYYCAAYSPLSSGMDSWGQGTQVTVSS", "polyreactivity (PSR sort gate)": "high polyreactivity"}]}]}
